Publication PMC6620040, “Structure of the DNA-Bound Spacer Capture Complex of a Type II CRISPR-Cas System” (Molecular Cell, 2019)

B1: Csn2 protein of the CRISPR3-Cas system from S. thermophilus DGCC7710 (natural protein, Streptococcus thermophilus DGCC7710)
chain: MKINFSLLDEPMEVNLGTVLVIEDVSVFAQLVKEFYQYDEQSNLTIFDSKIRSIRSSELLLITDILGYDINTSQVLKLLHTDIVSQLNDKPEVRSEIDSLVSLITDIIMAECIENELDIEYDEITLLELIKALGVRIETKSCTVFEKIFEILQIFKYLVKKRILVFVNSLSYFSKDEIYQILEYTKLSQADVLFLEPRQIEGIQQFILDKDYILMPYNN
notes: Csn2 of the type II-A CRISPR3-Cas system, Streptococcus thermophilus DGCC7710; expressed from the CRISPR3 locus plasmid; Tetramer (dimer of dimers, conformations Csn2A and Csn2B) in the structures; one Ca2+ per chain modelled; also called StCsn2; Csn2A; source: E. coli BL21 (DE3), expressed from the CRISPR3 locus plasmid (pCas1- and derivatives), in lysate; purified as a complex (Strep-Trap HP, …)
B2: Cas1 protein of the CRISPR3-Cas system from S. thermophilus DGCC7710, bearing a StrepII tag (natural protein, Streptococcus thermophilus DGCC7710)
chain: MAGWRTVVVNIHSKLSYKNNHLIFRNSYKTEMIHLSEIDILLLETTDIVLTTMLVKRLVDENILVIFCDDKRLPTAFLTPYYARHDSSLQIARQIAWKENVKCEVWTAIIAQKILNQSYYLGECSFFEKSQSIMELYHGLERFDPSNREGHSARIYFNTLFGNDFTRESDNDINAALDYGYTLLLSMFAREVVVCGCMTQIGLKHANQFNQFNLASDIMEPFRPIIDRIVYQNRHNNFVKIKKELFSIFSETYLYNGKEMYLSNIVSDYTKKVIKALNQLGEEIPEFRI
notes: Cas1 of the type II-A CRISPR3-Cas system, Streptococcus thermophilus DGCC7710; cloned into pETDUET-1 (pCas1Strep); Forms dimers with two conformations (Cas1A, Cas1B) in the structures; also called StCas1; Strep-tagged Cas1; source: E. coli BL21 (DE3), co-expressed with the rest of the CRISPR3-Cas locus, in lysate; purified as a complex (Strep-Trap HP, Superdex S200) for cryo-EM; not shown: …
B3: Cas2 protein of the CRISPR3-Cas system from S. thermophilus DGCC7710 (natural protein, Streptococcus thermophilus DGCC7710)
chain: MSYRYMRMILMFDMPTDTAEERKAYRKFRKFLLSEGFIMHQFSVYSKLLLNHTANTAMVGRLKANNPKKGNITILTVTEKQFARMIYLYGDKNTSIANSEERLVFLGDNYCDED
notes: Cas2 of the type II-A CRISPR3-Cas system, Streptococcus thermophilus DGCC7710; expressed from the CRISPR3 locus plasmid; source: E. coli BL21 (DE3), expressed from the CRISPR3 locus plasmid (pCas1- and derivatives), in lysate; purified as a complex (Strep-Trap HP, Superdex S200) for cryo-EM

Legend:
[1] = target: the molecule itself; assay: cryo-EM structure; Strep-Trap- and SEC-purified Cas9-Cas1-Cas2-Csn2 sample after DNase I treatment and gel filtration (25 mM Tris pH 7.5, 150 mM NaCl, 1 mM TCEP), graphene oxide coated grids; monomer Cas1_(8)-Cas2_(4)-Csn2_(8) at 3.2 Å (D2), dimer Cas1_(24)-Cas2_(12)-Csn2_(16) at 7.2 Å (D2), filament unit at 7.7 Å (D2); duplex DNA in the central channel
[2] = target: B2; assay: pull-down; StrepII-tagged Cas1 co-expressed in E. coli with the CRISPR3-Cas locus (all four proteins; also the variants lacking Cas9, the CRISPR array or tracrRNA); StrepTrap column, then size-exclusion chromatography (Superdex S200), SDS-PAGE; 10 mM Tris-HCl pH 7.5, 300 mM KCl, 1 mM EDTA, 1 mM DTT; details: partners not purified

| Binder | stoichiometry N [1] | binding result [2] |
| --- | --- | --- |
| B1 | 4 |  |
| B2 | 2 |  |
| B3 | 2 | binds |
